Results published in publication PMC3646547 (Nature communications, 2012).

Columns and labels:
crystal structure = molecular target: the molecule itself; assay: crystal structure
MHF1;MHF2 [1] = molecular target: T1, MHF1;MHF2 (human;human, UniProt Q8N2Z9;A8MT69 1-138;1-81, |); assay: fluorescence polarization
MHF1;MHF2 [2] = molecular target: T1, MHF1;MHF2; assay: EMSA
[3] = molecular target: MHF1 R12A/R18A/K73A/R74A;MHF2;FANCM-F K686A/R690A/R693A (human;human;human, UniProt Q8N2Z9;A8MT69;Q8IYD8 1-138;1-81;661-800, R12A;R18A;K73A;R74A||K686A;R690A;R693A); assay: EMSA
[4] = molecular target: MHF1;MHF2 K27A/K29A;FANCM-F (human;human;human, UniProt Q8N2Z9;A8MT69;Q8IYD8 1-138;1-81;661-800, |K27A;K29A|); assay: EMSA
[5] = molecular target: MHF1 K73A/R74A;MHF2;FANCM-F K675A/K676A (human;human;human, UniProt Q8N2Z9;A8MT69;Q8IYD8 1-138;1-81;661-800, K73A;R74A||K675A;K676A); assay: EMSA
[6] = molecular target: MHF1 K73A/R74A;MHF2;FANCM-F (human;human;human, UniProt Q8N2Z9;A8MT69;Q8IYD8 1-138;1-81;661-800, K73A;R74A||); assay: EMSA
MHF1 1-107;MHF2;FANCM-F = MHF1 1-107;MHF2;FANCM-F (human;human;human, UniProt Q8N2Z9;A8MT69;Q8IYD8 1-107;1-81;661-800, ||); assay: not stated
[7] = molecular target: MHF1 K73A/R74A;MHF2 R11A/K12A;FANCM-F K675A/K676A (human;human;human, UniProt Q8N2Z9;A8MT69;Q8IYD8 1-138;1-81;661-800, K73A;R74A|R11A;K12A|K675A;K676A); assay: EMSA
MHF1 K73A/R74A;MHF2 R11A/K12A;FANCM-F K675A/K676A, sequence (A8MT69 whole entry R11A/K12A, chain 2 of 2): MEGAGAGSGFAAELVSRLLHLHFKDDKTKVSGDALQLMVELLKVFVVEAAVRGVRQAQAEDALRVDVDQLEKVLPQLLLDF
MHF1 K73A/R74A;MHF2 R11A/K12A;FANCM-F K675A/K676A, sequence (Q8IYD8 661-800 K675A/K676A, chain 3 of 2): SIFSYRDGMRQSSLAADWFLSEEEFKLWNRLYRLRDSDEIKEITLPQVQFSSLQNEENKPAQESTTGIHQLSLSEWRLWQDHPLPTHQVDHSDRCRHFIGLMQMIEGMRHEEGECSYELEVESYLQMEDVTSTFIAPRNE

T1 sequence (A8MT69 whole entry, one chain of several): as the sequence (A8MT69 whole entry R11A/K12A, chain 2 of 2) above, with A11R, A12K counted along it
MHF1 R12A/R18A/K73A/R74A;MHF2;FANCM-F K686A/R690A/R693A, sequence (Q8N2Z9 whole entry R12A/R18A/K73A/R74A, chain 1 of 3): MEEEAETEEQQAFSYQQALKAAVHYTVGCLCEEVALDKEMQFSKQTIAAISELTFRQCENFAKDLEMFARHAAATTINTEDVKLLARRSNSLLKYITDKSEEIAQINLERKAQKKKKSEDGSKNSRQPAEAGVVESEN
MHF1 R12A/R18A/K73A/R74A;MHF2;FANCM-F K686A/R690A/R693A, sequence (A8MT69 whole entry, chain 2 of 3): as the sequence (A8MT69 whole entry R11A/K12A, chain 2 of 2) above, with A11R, A12K counted along it
MHF1 R12A/R18A/K73A/R74A;MHF2;FANCM-F K686A/R690A/R693A, sequence (Q8IYD8 661-800 K686A/R690A/R693A, chain 3 of 3): as the sequence (Q8IYD8 661-800 K675A/K676A, chain 3 of 2) above, with A15K, A16K, K26A, R30A, R33A counted along it
MHF1;MHF2 K27A/K29A;FANCM-F, sequence (A8MT69 whole entry K27A/K29A, chain 2 of 2): as the sequence (A8MT69 whole entry R11A/K12A, chain 2 of 2) above, with A11R, A12K, K27A, K29A counted along it
MHF1;MHF2 K27A/K29A;FANCM-F, sequence (Q8IYD8 661-800, chain 3 of 2): as the sequence (Q8IYD8 661-800 K675A/K676A, chain 3 of 2) above, with A15K, A16K counted along it
MHF1 1-107;MHF2;FANCM-F, sequence (A8MT69 whole entry, chain 2 of 2): as the sequence (A8MT69 whole entry R11A/K12A, chain 2 of 2) above, with A11R, A12K counted along it
MHF1 1-107;MHF2;FANCM-F, sequence (Q8IYD8 661-800, chain 3 of 2): as the sequence (Q8IYD8 661-800 K675A/K676A, chain 3 of 2) above, with A15K, A16K counted along it
MHF1 K73A/R74A;MHF2;FANCM-F, sequence (A8MT69 whole entry, chain 2 of 2): as the sequence (A8MT69 whole entry R11A/K12A, chain 2 of 2) above, with A11R, A12K counted along it
MHF1 K73A/R74A;MHF2;FANCM-F, sequence (Q8IYD8 661-800, chain 3 of 2): as the sequence (Q8IYD8 661-800 K675A/K676A, chain 3 of 2) above, with A15K, A16K counted along it
MHF1 K73A/R74A;MHF2;FANCM-F K675A/K676A, sequence (A8MT69 whole entry, chain 2 of 2): as the sequence (A8MT69 whole entry R11A/K12A, chain 2 of 2) above, with A11R, A12K counted along it
MHF1 K73A/R74A;MHF2;FANCM-F K675A/K676A, sequence (Q8IYD8 661-800 K675A/K676A, chain 3 of 2): as the sequence (Q8IYD8 661-800 K675A/K676A, chain 3 of 2) above

B1: MHF1^1-107 (truncated MHF1 with the C-terminal 31 residues deleted) (domain or fragment, human, UniProt Q8N2Z9 1-107, looked up)
chain: MEEEAETEEQQRFSYQQRLKAAVHYTVGCLCEEVALDKEMQFSKQTIAAISELTFRQCENFAKDLEMFARHAKRTTINTEDVKLLARRSNSLLKYITDKSEEIAQIN
- binding result (crystal structure): binds

B2: 59 bp dsDNA (FPA) (dsDNA)
DNA 1: ACGCTGCCGAATTCTACCAGTGCCTTGCTAGGACATCTTTGCCCACCTGCAGGTTCACC
DNA 2: GGTGAACCTGCAGGTGGGCAAAGATGTCCTAGCAAGGCACTGGTAGAATTCGGCAGCGT
- binding result (MHF1;MHF2 [1]): binds

B3: 59 bp dsDNA (EMSA) (dsDNA)
DNA 1: B2 DNA 1
DNA 2: B2 DNA 2
- binding result (MHF1;MHF2 [2]): binds
- binding result [3]: no binding
- binding result [4]: binds
- binding result [5]: no binding
- binding result [6]: binds
- binding result (MHF1 1-107;MHF2;FANCM-F): no binding
- binding result [7]: no binding
